In the nanobody polyreactivity screen of Harvey et al. (2022):

Test: yeast display, Sf9 membrane polyspecificity reagent, FACS + sequencing; frameworks hold sequencing errors
How it was run: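 A nanobody's polyreactivity label depends on the gate it was sorted from. Yeast display cells were stained with 10% biotinylated, detergent-solubilized Sf9 membrane reagent for 1 hour at 4 °C, enriched on streptavidin microbeads and sorted by FACS. The low and high (top ~1%) gates were set on anti-HA fluorescence for expression and streptavidin fluorescence for reagent binding.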

Sequence | polyreactivity (PSR sort gate)
QVQLVESGGGLVQAGGSLRLSCAASGSIFRKYAMGWYRQAPGKERELVAVITTDGSTNYADSVKGRFTISRDNAKNTVYLQMNSLKPEDTAVYYCNAVRSSIGTDNDYWGQGTQVTVSS | low polyreactivity
QVQLVESGGGLVQAGGSLRLSCAASGRIFQYYAMGWYRQAPGKERELVAAIDQSGDTTYYADSVKGRFTISRDNAKNTVYLQMNSLKPEDTAVYYCAAGYDWAYHWVPQWMYYWGQGTQVTVSS | low polyreactivity
QVQLVESGGGLVQAGGSLRLSCAASGITFVANAMGWYRQAPGKERELVAAITRGGSTNYADSVKGRFTISRDNAKNTVYLQMNSLKPEDTAVYYCAADYVTRIGRYDYWGQGSQVTVSS | low polyreactivity
QVQLVESGGGLVQAGGSLRLSCAASGRTFQDYALGWSRQAPGKEREFVADISDGGSTNYADSVKGRFTISRDNAKNTVYLQMNSLKPEVTAVYYCAADQYHGVGINFRSDYDYWGHGTQVTVSS | low polyreactivity
QVQLVESGGGLVQAGGSLRLSCAASGFTFIRNAMGWYRQAPGKERELVAAISKRGGSTNYADSVKGRFTISRDNAKTTVYLLMNSLKPEDTAVYYCAADVDTRSSSGYWGQGTQVTVSS | low polyreactivity
QVQLVESGGGLVQAGGSLRLSCAASGFIFTVNAMGWYRQAPGKERELVAAITQSGGNTSYADSVKGRFTISRDNAKNTVYLQMNSLTPEDTAVYYCNASSDTSRYGVSTYYYWGQGTQVTVSS | low polyreactivity
QVQLVESGGGLVQAGGSLSLSCAASGSIIARYAMGWYRQAPGKERELVAAITWSATSTYYADSVKGRFTISRDNAKNTVYLQMTSLKPEDTAVYYCNAGASYFLVISQSRRDYWGQGTQVTVSS | low polyreactivity
QVQLVESGGGLVQAGGSLRLSCAAYGRTFWRNAMGWYRQAPGKEREWVAAISRSGDSTRYADSLKGRFTISRDNAKNTFYLQMNSLKPEDTAVYYCNKLGTRVYEMDYWGQGTQVTVSS | high polyreactivity
QVQLVESGGGIVQAGGSLRLSCAASGFTFRGNAMGWYRQAPGKERELVAVINASGDSTYYADSVKGRFTISRDNAKNTVYLQMNSLKPEDTAVYYCARAYTRRWRYDYWGQGTQVTVSS | high polyreactivity
QVQLVESGGGLVQAGGSLRLSCAASGRIFSLYAMGWYRQAPGNERELVAAISKRGGSTYYADSVKGRFTISRDNAKNTVYLHMNSLKPEDTAVYYCATQLPFRKPWHDYWGQGTQVTVSS | high polyreactivity
QVQLVESGGGLVQAGGSLRLSCAASGFIFGWNAMGWYRQAPGKERELVATITRGSTYYADSVKGRFTISRDNAKNTVYLQMNSLKPEDTAVYYCNVVYYGRWANYDYWGQGTQVTVSS | low polyreactivity
QVQLVESGGCLVQAGGSLRLSCAASGRTFFNYGMGWYRQAPGKEREFVARISFSGGSTYYADSVKGRFTISRDNAKNTVFLQMNSLIPEDTAVYYCNARVFPVAYRYGYWGQGTQVTVSS | high polyreactivity
QVQIVESGGGLVQAGGSLRLSCAASGSIFSRYAMGWYRQAPGKERELVAAISGRGGGTYYADSVKGRFTISRDNAKNTVYLQMNSLKPEDTAVYYCAAQLGRPAYSRVSWRAYYYWGQGTQVTVSS | low polyreactivity
QVQLVESGGGLVQAGGSLRLSCAASGSIFVQNAMGWYRQAPGKERELVAAINSGGSTYYADSVKGRFTISRDNANNTVYLQMNSLKPEDTAVYYCAADHNYYAYSYYYWGQGTQVTVSS | low polyreactivity
QVQLVESGGGLVQAGGSLRLSCAASGLIFYNYAMGWYRQAPGKERELVAAISSGGSTYYADSVKGRFTISRDNAKNTVYLQMNSLKPEDTAVYYCAASGPGYSRYTQYDSWGQGTQVTVSS | high polyreactivity
QVQLVESGGGLVQAGGSLRLSCAASGGTFKANAMGWYRQAPGKERELVAAIRQTGGSTYYADSVKGRFTISRDNAKNTVYLQMNSLKPEDTAVYYCAAQSHRYCIYDYWGQGTQVTVSS | high polyreactivity
QVQLVESGGGLVQAGGSLRLSCAASGRIFYGYAIGWYRQAPGKEREFVARINVSGTSTFYADSVKGRFTISRDNAKNTVYLQMTSLKPEDTAVYDCAARGLPSNDYYYVHGYIMDYWGQGTQVTVSS | low polyreactivity
QVQLVESGGGLDQAGGSLRLSCAASGSTFWGYTMGWYRQAPGKERELVAAITSGGSTNYADSVKGRFTISRDNAKNTVYLQMYSLKPEDTAVYYCNAVYPGRRRYRKWYIYDYWGQGTQVTVSS | high polyreactivity
QVQLVESGGGLVQAGGSLRLICAASGSTFARYAMGWYRQAPGKERELVAVIRSGGSTNYADSVKGRFTISRDNAKNTVYLQMNSMKTEDTAGAADQWTIHRWATYGYWGQGTQVTVSS | low polyreactivity
QVQRVESGGGLFQAGGRLRLSCAASGSISLKYAMGWYRQAPGKERELVATISRGGSTNYADSVKGRFTISRDNAKNTVYIQMNSLKPEDTAVYYCAANYGRPYGTYGYWGQGTQVTVSS | high polyreactivity
QVQLVESGGGLVQAGGTLRLSCAASGSTFPPYAMGWYRQAPGKERELVAAISWRGSSTYYADSVKGRFTISRDNAKNTVYLQMNSLKPEDTAVYYCNADGGGSYWLYEHGFARDYWGQGTQVTVSS | high polyreactivity
QVQLVESGGGLVQAGGSLRISCAASGSTFYPNAMGWYRPAPGTERELVAAIRGTGGSTYADSVKGRFTISRDNAKNTVYLQMNSLKPEDTAVYYCAAAGWTYRVEKYSVRLTGYDYWGQGTQVTVSS | high polyreactivity
